B3: His-SUMO-UPB1 (natural protein, Arabidopsis, UniProt O22901 1-102, looked up)
chain: MGVTLEGQRKESIWVLMRRQRARRALVKKIMIRPRKSVEASRRPCRAIHRRVKTLKELVPNTKTSEGLDGLFRQTADYILALEMKVKVMQTMVQVLTETNCV
notes: UPB1, Arabidopsis, At2g47270; The phosphorylation methods speak of a 6x His tag; source: E. coli, purified

The target in one test is PRE3 (UniProt Q9CA64). Put plainly: anti-HA co-IP, anti-GFP blot. To be noted: reference: wild type UPB1; sites S37,S41.
The target in a further test is PRE2 (UniProt Q9LXG5). Put plainly: anti-HA co-IP, anti-GFP blot. To be noted: reference: wild type UPB1; sites S37,S41.
The test “His-SUMO-UPB1” addresses B3. Put plainly: pull-down; His pull-down: about 30 ug His-SUMO-UPB1 with 30 ug MBP-BIN2, GST-PRE2 or GST-PRE3 in 400 ul 20 mM Tris-HCl pH 8.0, 150 mM NaCl, 0.2% Triton; about 3 h at 4 C; blots with anti-His, anti-MBP, anti-GST. Conditions: both partners purified.
In another test the target is T1, MBP-BIN2 (Arabidopsis, UniProt Q39011 1-380).
T1 construct: BIN2, Arabidopsis, At4g18710; source: E. coli, purified
T1 sequence (looked up): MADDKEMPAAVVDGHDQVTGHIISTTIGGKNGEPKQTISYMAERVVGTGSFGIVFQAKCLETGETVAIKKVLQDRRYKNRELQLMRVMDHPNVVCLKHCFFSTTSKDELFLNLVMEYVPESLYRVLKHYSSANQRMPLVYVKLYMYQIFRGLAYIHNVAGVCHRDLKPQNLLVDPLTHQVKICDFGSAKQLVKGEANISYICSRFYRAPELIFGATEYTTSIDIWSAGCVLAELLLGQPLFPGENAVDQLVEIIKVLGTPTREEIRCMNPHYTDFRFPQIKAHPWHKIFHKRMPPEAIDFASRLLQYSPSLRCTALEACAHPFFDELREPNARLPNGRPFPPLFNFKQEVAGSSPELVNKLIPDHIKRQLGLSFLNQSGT
The description is as above. Conditions: both partners purified.

As for “UPB1 (UPBEAT1) (from UniProt O22901) UPB1 S37A S41A”, the “binding against the reference” value with PRE3 and in the test with PRE2 was “stronger” in each case.

B1: GST-PRE3 (natural protein, Arabidopsis, UniProt Q9CA64 1-93, looked up)
chain: MSGRRSRSRQSSGTSRISEDQINDLIIKLQQLLPELRDSRRSDKVSAARVLQDTCNYIRNLHREVDDLSERLSELLANSDTAQAALIRSLLTQ
notes: PRE3, Arabidopsis, At1g74500; source: E. coli, purified
As for B1, the binding result with His-SUMO-UPB1 was “binds”.

B2: GST-PRE2 (natural protein, Arabidopsis, UniProt Q9LXG5 1-94, looked up)
chain: MSSSRRSRQASSSSRISDDQITDLISKLRQSIPEIRQNRRSNTVSASKVLQETCNYIRNLNKEADDLSDRLTQLLESIDPNSPQAAVIRSLING
notes: PRE2, Arabidopsis, At5g15160; source: E. coli, purified
As to B2, the binding result with His-SUMO-UPB1 is on record as “binds”. For B3, in the test with MBP-BIN2, the binding result is on record as “binds”.

For the origin of these results see article PMC7360063, “Brassinosteroids regulate root meristem development by mediating BIN2-UPB1 module in Arabidopsis” (PLoS Genetics, 2020).
